Test results taken from paper PMC5499655.

Target: T1, His6-BldD (Streptomyces venezuelae) (UniProt A0ABZ1NMZ0)
T1 sequence: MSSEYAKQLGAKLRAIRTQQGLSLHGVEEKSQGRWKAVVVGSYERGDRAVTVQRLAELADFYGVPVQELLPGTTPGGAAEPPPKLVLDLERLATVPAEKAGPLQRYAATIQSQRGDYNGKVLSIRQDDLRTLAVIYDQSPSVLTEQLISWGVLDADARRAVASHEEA
Experiment: EMSA
Settings: binding buffer and pH not stated

Sequence	binding
CTCCCAGAGGCAGAGCTTCCATCACGTGCAGTGCGGGACCGTTCACCCGTCGTGGCGACGTGAGGGGTCCTTTGTGCGTCTGAGGAGAATAACGCTTCGTACAGGCAGCGCTACACCCAGTTGCCTAAATCACCGGTTCCG (double strand) [bldN promoter]	binds
GCCATGACCTGCTGTGACTTGAGTCACAGAGGCGAGTATTTGCTGACCCTGTGTACCGGGTGCGCAGCTCGCTGTGATTCAGTGGCGGTGACAGTGCAACACGAAGCCGATGAGAACCCTGGAGTTGCTGTCGAGGTCTCG (double strand) [cdgB promoter]	binds
